Measurements published in patent US20190327974A1, “SYNERGISTS FOR IMPROVED PESTICIDES” (priority 2017, published 2019).

What was measured:
[1] = test system: other serine hydrolases (e.g. α-lytic protease); settings: cited from earlier work
[2] = test system: CCCC(=O)Oc1ccc([N+](=O)[O-])cc1; assay: Inhibition of Gly137Asp LcαE7, 4-nitrophenol butyrate hydrolysis; type: biochemical, Lucilia cuprina; settings: other: Gly137Asp αE7, room temperature; pH 7.5
Text: (§1) The term “carboxyethylesterase” (CBE), refers to insect carboxylesterases from the alpha and beta and non-microsomal gene clusters, as defined in Oakeshott, Claudianos, Campbell, Newcomb and Russell, “Biochemical Genetic and Genomics of Insect Esterases”, pp 309-381, Chapter 10, Volume 5, 2005, Eds. Gilbert, Iatrou, Gill, published—Elsevier which is incorporated herein by reference. The αE7 CBE is an example of an alpha esterase, and is found in the sheep blowfly, Lucilia cuprina, with homologous genes being present in other insect pests. […]
(§2) His6-tagged proteins were expressed in BL21(DE3) E. coli (Invitrogen) at 26° C. for 18 hours. […] Protein concentration was determined by measuring the absorbance at 280 nm with an extinction coefficient calculated using the Protparam online server (Gasteiger, E. et al. Protein identification and analysis tools on the ExPASy server. Proteomics Protoc. Handb. 571-607 (2005). doi:10.1385/1-59259-890-0:571).
(§3) Inhibition of wild-type αE7 and the Gly137Asp αE7 variant was determined by a competition assay between the native-substrate analogue 4-nitrophenol butyrate (Sigma) and the boronic acid compounds. Initially, the Michalis constant (KM) with 4-nitrophenol butyrate was measured for both enzymes to determine an appropriate concentration of substrate for use in the competition assays. […]

[3] = test system: CCCC(=O)Oc1ccc([N+](=O)[O-])cc1; assay: Inhibition of wild-type LcαE7, 4-nitrophenol butyrate hydrolysis; type: biochemical, Lucilia cuprina; settings: other: wildtype αE7, room temperature; pH 7.5
Text: as §1, §2, §3

With `OB(O)c1ccccc1` [PBA, phenylboronic acid] as the compound, how does the “inhibition of other serine hydrolases” value [1] read?
Its value is “micromolar to millimolar inhibition”.

With “Lucilia cuprina αE7 carboxylesterase (LcαE7) variant Gly137Asp (Lucilia cuprina; G137D)” as the compound, how does the Km [2] read?
Its Km is 250 µM.

For “Lucilia cuprina αE7 carboxylesterase (LcαE7), wild type, GenBank AAB67728.1 (Lucilia cuprina)”, which Km [3] is on record?
Its Km is 15 µM.
